Results published in publication PMC13237374.

Molecular target: human medin (human) (UniProt Q08431)
Assay: thioflavin T aggregation kinetics

critical concentration of aggregation: 14 nM
critical monomer concentration for aggregation: 10 to 25 nM
elongation rate constant k+ (monomer addition to fibril ends): 5e+07 M⁻¹ s⁻¹
Substance: human medin (from UniProt Q08431 268-317) (peptide)
